Reference: patent US20190077844A1 (published 2019)

Legend:
[1] = target: T1, Human glypican-3 on cells (Huh7, Hep3B, H446, HepG2; Hep3B xenograft tissue) (UniProt P51654 25-554); assay: flow cytometry; H446 cells
[2] = target: T1, Human glypican-3 on cells (Huh7, Hep3B, …); assay: flow cytometry; Hep3B cells

T1 sequence (P51654 25-554): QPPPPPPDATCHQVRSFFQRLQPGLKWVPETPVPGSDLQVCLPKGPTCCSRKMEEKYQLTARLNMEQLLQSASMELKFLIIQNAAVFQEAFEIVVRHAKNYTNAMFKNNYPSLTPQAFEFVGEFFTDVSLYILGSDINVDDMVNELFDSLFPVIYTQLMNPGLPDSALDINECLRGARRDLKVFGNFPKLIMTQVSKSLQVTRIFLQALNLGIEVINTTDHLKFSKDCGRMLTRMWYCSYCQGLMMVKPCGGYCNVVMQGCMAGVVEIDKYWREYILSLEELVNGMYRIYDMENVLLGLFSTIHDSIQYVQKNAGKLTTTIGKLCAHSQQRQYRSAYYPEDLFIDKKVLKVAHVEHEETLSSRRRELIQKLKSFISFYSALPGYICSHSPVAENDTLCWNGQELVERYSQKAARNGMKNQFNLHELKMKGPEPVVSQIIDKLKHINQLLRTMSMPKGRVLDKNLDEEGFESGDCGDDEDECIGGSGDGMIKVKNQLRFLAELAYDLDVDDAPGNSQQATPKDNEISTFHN

B1: ADX_6077_F02 tubulysin analog drug conjugate DAR1 (designed binder)
chain: MGVSDVPRDLEVVAATPTSLLISWSDDYHAHRYYRITYGETGGNSPVQEFTVPGEHVTATISGLKPGVDYTITVYAVTYDGEKAATDWSISINYRTPCHHHHHH
modifications: tubulysin analog-linker (formula IV) on the cysteine of the C-terminal PC via maleimide
What does the source list for B1?
EC50 [1]: 0.386 nM; EC50 [2]: 0.664 nM

B2: ADX_6912_G02 tubulysin analog drug conjugate DAR2 (designed binder)
chain: MGVSDVPRDLEVVAATPTSLLISWSDDYHAHRYYRITYGETGGNSPVQEFTVPGEHVTATISGLKPGVDYTITVYAVTYDGEKAATDWSISINYRTPCPPPPPCHHHHHH
modifications: tubulysin analog-linker (formula IV) on each of the two cysteines of the C-terminal PCPPPPPC
Which results are given for B2?
EC50 [1]: 0.573 nM; EC50 [2]: 0.537 nM
